Experimental findings from patent US9073989B2, “Antibiotic comprising an antibody mimetic, its preparation methods and uses thereof” (PROTEIN DESIGN LAB, LTD, priority 2011, dated 2015) are described below.

The assay concerns Mycobacterium tuberculosis (H37Rv, clinical drug-resistant strain94120). In kind it is cell-based.

Entries after “also recorded” stand apart in the source; their conditions may differ.

B1: PMC-AM1: Fusion of antibody mimetic AM1 (VHCDR1-VHFR2-VLCDR3, Seq ID No.2) to C-terminus of Colicin Ia; Seq ID No.6 (protein)
chain: SDPVRITNPGAESLGYDSDGHEIMAVDIYVNPPRVDVFHGTPPAWSSFGNKTIWGGNEWVDDSPTRSDIEKRDKEITAYKNTLSAQQKENENKRTEAGKRLSAAIAAREKDENTLKTLRAGNADAADITRQEFRLLQAELREYGFRTEIAGYDALRLHTESRMLFADADSLRISPREARSLIEQAEKRQKDAQNADKKAADMLAEYERRKGILDTRLSELEKNGGAALAVLDAQQARLLGQQTRNDRAISEARNKLSSVTESLNTARNALTRAEQQLTQQKNTPDGKTIVSPEKFPGRSSTNHSIVVSGDPRFAGTIKITTSAVIDNRANLNYLLSHSGLDYKRNILNDRNPVVTEDVEGDKKIYNAEVAEWDKLRQRLLDARNKITSAESAVNSARNNLSARTNEQKHANDALNALLKEKENIRNQLSGINQKIAEEKRKQDELKATKDAINFTTEFLKSVSEKYGAKAEQLAREMAGQAKGKKIRNVEEALKTYEKYRADINKKINAKDRAAIAAALESVKLSDISSNLNRFSRGLGYAGKFTSLADWITEFGKAVRTENWRPLFVKTETIIAGNAATALVALVFSILTGSALGIIGYGLLMAVTGALIDESLVEKANKFWGISYWLHWIKQRPGQGLWIGSQSTHVPRT
modifications: The amino acid sequence of antibiotic PMC-AM1
Take B1: the “bacteriostatic or bactericidal role” value is given as “bactericidal effect rather than simply antibacterial effect”; the “growth of bacteria lawn, strain94120” value was “no cell growth; also recorded: no growth of bacteria lawn”; the “growth of bacteria lawn, strain H37Rv, re-culture test” value is reported as “still no cell growth; also recorded: always no growth of bacteria lawn”.

B2: Colicin Ia (protein, UniProt P06716 1-626, looked up)
Colicin-Ia: MSDPVRITNPGAESLGYDSDGHEIMAVDIYVNPPRVDVFHGTPPAWSSFGNKTIWGGNEWVDDSPTRSDIEKRDKEITAYKNTLSAQQKENENKRTEAGKRLSAAIAAREKDENTLKTLRAGNADAADITRQEFRLLQAELREYGFRTEIAGYDALRLHTESRMLFADADSLRISPREARSLIEQAEKRQKDAQNADKKAADMLAEYERRKGILDTRLSELEKNGGAALAVLDAQQARLLGQQTRNDRAISEARNKLSSVTESLNTARNALTRAEQQLTQQKNTPDGKTIVSPEKFPGRSSTNHSIVVSGDPRFAGTIKITTSAVIDNRANLNYLLSHSGLDYKRNILNDRNPVVTEDVEGDKKIYNAEVAEWDKLRQRLLDARNKITSAESAVNSARNNLSARTNEQKHANDALNALLKEKENIRNQLSGINQKIAEEKRKQDELKATKDAINFTTEFLKSVSEKYGAKAEQLAREMAGQAKGKKIRNVEEALKTYEKYRADINKKINAKDRAAIAAALESVKLSDISSNLNRFSRGLGYAGKFTSLADWITEFGKAVRTENWRPLFVKTETIIAGNAATALVALVFSILTGSALGIIGYGLLMAVTGALIDESLVEKANKFWGI
notes: Wild-type bacterial toxin secreted by E. coli forming ion channels
Consider B2, for which the “growth of bacteria lawn, strain H37Rv, re-culture test” value is reported as “quantity of cells growth; also recorded: a mass of bacteria lawn growing”.
